These results are taken from PMC9552611, “MtTRC-1, a Novel Transcription Factor, Regulates Cellulase Production via Directly Modulating the Genes Expression of the Mthac-1 and Mtcbh-1 in Myceliophthora thermophila”.

The target in series [1] is T1, GST-MtTRC-1-DBD (Myceliophthora thermophila ATCC 42464) (UniProt G2Q031).
T1 sequence: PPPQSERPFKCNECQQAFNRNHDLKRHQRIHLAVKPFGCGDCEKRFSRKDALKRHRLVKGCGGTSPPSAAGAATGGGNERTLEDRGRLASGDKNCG
The series is described as follows: EMSA. The conditions noted are these: EMSA: 20 mM Tris-base pH 7.5, 20 mM KCl, 10 mM MgCl2, 2 mM DTT, 0.5 ug/uL BSA, 0.2 mg/mL fish sperm DNA, 5% glycerol, 25 C 30 min, 10 ng probe; gel 5% PAGE …. Background: In EMSA bound probe runs differently from free probe, usually more slowly.

For the next series, the target named is T2, GST-MtTRC-1-DBD (Myceliophthora thermophila ATCC 42464, UniProt G2Q031 355-450).
T2 sequence: T1 sequence
The experiment in a line: EMSA; EMSA: 20 mM Tris-base pH 7.5, 20 mM KCl, 10 mM MgCl2, 2 mM DTT, 0.5 ug/uL BSA, 0.2 mg/mL fish sperm DNA, 5% glycerol, 25 C 30 min, 10 ng probe; gel 5% PAGE 0.5x TBE 4 C. Footprinting: 400 ng probe in 40 uL, 25 C 30 min. The conditions noted are these: protein: recombinant; tags: GST (N-terminal, pGEX-4T-1); label: Cy5.

Take “TTTGCACCATGGAACCTGTGCCCAAAGAACCAAAGAACGCTATTCGCACATATTGCGAATCAGTTGCCAGTGATAGGGGGCGGGGACAGAACCCAAGCCGAGACATACTGTACAACCCAGCGGGTTGTCAATTGCACGCTACATGGTGTAATTTGTATTCCGGACGCACATCATTTCGCAGTTAAGGTTGTGCCCGCTTTTCTGCACTGCCGCTTTGGCGTCTCTTTTTTTTTTTTTTTACGAAGGCTTGCAAGGCGACGTCTTACGCGGTCGGACTTGAATCAGACA (double strand) [Mthac-1-P3]”: the binding result in series [1] is given as “binds”.

B1: Mthac-1-P7-FP-M4 (dsDNA)
DNA 1: GATGTGTTTTACAATCGTTCTATTTATTCATTGCTTGACTTGTGGG
DNA 2: CCCACAAGTCAAGCAATGAATAAATAGAACGATTGTAAAACACATC
Regarding B1, in the series with GST-MtTRC-1-DBD, the binding result was “no binding”.
